Assay results published in patent US20230364262A1, “VIA CYCLOADDITION BILATERALLY FUNCTIONALIZED ANTIBODIES” (SYNAFFIX B.V., priority 2020, published 2023).

Key:
CD3 [1] = molecular target: CD3 (UniProt P07766); assay: flow cytometry on Jurkat E6.1 cells, 1 nM, anti-HIS-PE
CD3 [2] = molecular target: CD3 (UniProt P07766); assay: flow cytometry on Jurkat E6.1 cells, 10 nM, anti-HIS-PE
CD3 [3] = molecular target: CD3 (UniProt P07766); assay: flow cytometry on Jurkat E6.1 cells, 100 nM, anti-HIS-PE
CD3 [4] = molecular target: CD3 (UniProt P07766); assay: flow cytometry on Jurkat E6.1 cells, 316 nM, anti-HIS-PE
CD3 [5] = molecular target: CD3 (UniProt P07766); assay: flow cytometry on Jurkat E6.1 cells, 0.32 nM, anti-HIS-PE
CD3 [6] = molecular target: CD3 (UniProt P07766); assay: flow cytometry on Jurkat E6.1 cells, 1000 nM, anti-HIS-PE
CD3 [7] = molecular target: CD3 (UniProt P07766); assay: flow cytometry on Jurkat E6.1 cells, 3.16 nM, anti-HIS-PE
CD3 [8] = molecular target: CD3 (UniProt P07766); assay: flow cytometry on Jurkat E6.1 cells, 31.6 nM, anti-HIS-PE
[9] = molecular target: T1, CD3 (CD3-positive Jurkat E6.1 cells) (Homo sapiens, UniProt P07766); assay: CD3 binding analysis by FACS on CD3-positive cells; details: Table 1
T1 construct: Jurkat E6.1 cells, which express CD3 on the cell surface; endogenous in cells; host or cells: Jurkat E6.1
Protocol: Both cell lines were cultured in RPMI 1640 supplemented with 1% pen/strep and 10% fetal bovine serum at a concentration of 2 × 10^5 to 1 × 10^6 cells/ml. Cells were washed in fresh medium before the experiment and 100,000 cells per well were seeded in a 96-wells plate (duplicate wells). The dilution series of 6 antibodies were made in phosphate-buffered saline (PBS). The antibodies were diluted 10 times in the cell suspension and incubated at 4° C. in the dark for 30 minutes. After incubation, the cells were washed twice in cold PBS / 0.5% BSA, and incubated with anti-HIS-PE (only for 200) or anti-lgG1-PE (for all other compounds) at 4° C., in the dark for 30 minutes. After the second incubation step, the cells were washed twice. 7AAD was added as a live-dead staining. Detection of the fluorescence in the Yellow-B channel (anti-IgG1-PE and anti-HIS-PE) and the Red-B channel (7AAD) was done with the Guava 5HT flow cytometer. Median fluorescence intensity in the Yellow-B channel (anti-IgG1-PE and anti-HIS-PE) in life cells was determined with Kaluza software.

Sequence of CD3 (P07766 23-207): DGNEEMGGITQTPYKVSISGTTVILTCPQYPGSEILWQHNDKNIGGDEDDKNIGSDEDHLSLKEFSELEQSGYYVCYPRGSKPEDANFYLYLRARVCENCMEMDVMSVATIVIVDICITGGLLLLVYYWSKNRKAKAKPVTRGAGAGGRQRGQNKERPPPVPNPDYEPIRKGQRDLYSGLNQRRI
T1 sequence (P07766 23-207): as above
T1 sequence (P09693 23-182 partner): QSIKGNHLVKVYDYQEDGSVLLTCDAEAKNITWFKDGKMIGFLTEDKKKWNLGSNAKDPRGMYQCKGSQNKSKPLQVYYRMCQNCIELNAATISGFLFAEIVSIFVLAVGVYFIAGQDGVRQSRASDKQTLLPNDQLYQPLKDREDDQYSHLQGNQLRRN
T1 sequence (P04234 22-171 partner): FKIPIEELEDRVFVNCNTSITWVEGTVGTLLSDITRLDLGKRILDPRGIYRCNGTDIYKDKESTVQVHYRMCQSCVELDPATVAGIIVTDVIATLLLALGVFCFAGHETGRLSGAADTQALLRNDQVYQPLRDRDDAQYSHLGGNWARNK
T1 sequence (P20963 22-164 partner): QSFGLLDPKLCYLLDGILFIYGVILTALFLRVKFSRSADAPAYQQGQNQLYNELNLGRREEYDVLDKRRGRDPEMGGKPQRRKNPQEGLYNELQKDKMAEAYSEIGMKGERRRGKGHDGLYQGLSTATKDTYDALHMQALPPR

## Humanized OKT3 (hOKT3) with C-terminal sortase A recognition sequence (scFv)
CD3 [1]
  median fluorescence intensity: 66.2
CD3 [2]
  median fluorescence intensity: 110
CD3 [3]
  median fluorescence intensity: 177
CD3 [4]
  median fluorescence intensity: 224
CD3 [5]
  median fluorescence intensity: 63.6
CD3 [6]
  median fluorescence intensity: 417
CD3 [7]
  median fluorescence intensity: 83.7
CD3 [8]
  median fluorescence intensity: 154

## Rituximab
[9]
  concentration-dependent binding to the CD3 positive Jurkat E6.1 cell line: not
